Reference: US20220169722A1 (WUXI BIOLOGICS IRELAND, published 2022)
Where two headings read alike, the source gives them in different places.

Assays:
[1] = molecular target: T1, human LAG-3 on transfected cells (human, UniProt P18627 23-525); experiment: FACS affinity on transfected cells
T1 construct: whole, on cells; Flp-In-293 or CHO-K1 cells transfected with full length human LAG-3; also called cell surface human LAG-3
T1 sequence (looked up): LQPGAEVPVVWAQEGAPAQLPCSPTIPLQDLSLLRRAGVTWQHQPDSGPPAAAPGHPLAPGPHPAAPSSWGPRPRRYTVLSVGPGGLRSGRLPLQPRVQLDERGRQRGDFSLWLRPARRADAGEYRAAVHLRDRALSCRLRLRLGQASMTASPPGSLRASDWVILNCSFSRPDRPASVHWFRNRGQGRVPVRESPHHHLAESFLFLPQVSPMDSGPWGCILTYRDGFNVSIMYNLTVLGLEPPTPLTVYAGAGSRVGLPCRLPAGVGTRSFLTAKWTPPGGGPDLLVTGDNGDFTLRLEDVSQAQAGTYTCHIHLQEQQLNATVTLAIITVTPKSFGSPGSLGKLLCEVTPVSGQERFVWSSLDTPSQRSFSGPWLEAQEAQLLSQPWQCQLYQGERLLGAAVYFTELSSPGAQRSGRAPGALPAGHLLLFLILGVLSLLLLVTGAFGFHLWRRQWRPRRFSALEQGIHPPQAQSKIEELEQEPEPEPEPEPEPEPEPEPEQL

[2] = molecular target: T2, mouse LAG-3 on transfected cells (mouse, UniProt Q61790 24-521); experiment: FACS affinity on transfected cells
T2 construct: whole, on cells; Flp-In-CHO cells transfected with mouse LAG-3; also called cell surface mouse LAG-3; murine LAG-3
T2 sequence (looked up): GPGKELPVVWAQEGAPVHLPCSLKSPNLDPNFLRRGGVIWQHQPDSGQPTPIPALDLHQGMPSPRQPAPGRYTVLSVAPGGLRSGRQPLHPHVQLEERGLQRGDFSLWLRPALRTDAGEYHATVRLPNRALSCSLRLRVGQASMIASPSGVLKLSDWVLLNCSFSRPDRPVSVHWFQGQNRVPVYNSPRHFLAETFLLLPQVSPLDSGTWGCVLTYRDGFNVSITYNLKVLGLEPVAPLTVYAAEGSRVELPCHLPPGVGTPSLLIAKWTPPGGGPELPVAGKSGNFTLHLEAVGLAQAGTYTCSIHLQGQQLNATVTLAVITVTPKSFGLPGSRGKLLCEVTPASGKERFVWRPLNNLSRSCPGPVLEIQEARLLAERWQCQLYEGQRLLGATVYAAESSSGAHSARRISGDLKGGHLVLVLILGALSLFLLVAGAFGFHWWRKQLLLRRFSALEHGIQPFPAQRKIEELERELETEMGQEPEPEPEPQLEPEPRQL

[3] = molecular target: T3, cynomolgus LAG-3 on transfected cells (cynomolgus monkey); experiment: FACS affinity on transfected cells
T3 construct: whole, on cells; 293F cells transfected with cynomolgus LAG-3; also called cell surface cynomolgus LAG-3; monkey LAG-3

[4] = molecular target: T2, mouse LAG-3 on transfected cells; experiment: FACS on mouse LAG-3 transfected cells
Method: (§1) Similarly, cross-reactivity to cynomolgus or murine LAG-3 was tested by FACS with cyno or murine LAG-3 transfected cell lines.

[5] = molecular target: T3, cynomolgus LAG-3 on transfected cells; experiment: FACS, serial dilutions on cynomolgus LAG-3 transfected cells, PE-labeled secondary antibody
Method: as §1

[6] = molecular target: T4, mouse Fc (mFc)-tagged human LAG-3 (human, UniProt P18627 23-450); experiment: ELISA blocking: antibody pre-mixed with mFc-tagged human LAG-3, added to plates coated with human LSECtin (blocked ligand); detection goat anti-mouse IgG Fc-HRP
T4 construct: extracellular domain
T4 sequence (looked up): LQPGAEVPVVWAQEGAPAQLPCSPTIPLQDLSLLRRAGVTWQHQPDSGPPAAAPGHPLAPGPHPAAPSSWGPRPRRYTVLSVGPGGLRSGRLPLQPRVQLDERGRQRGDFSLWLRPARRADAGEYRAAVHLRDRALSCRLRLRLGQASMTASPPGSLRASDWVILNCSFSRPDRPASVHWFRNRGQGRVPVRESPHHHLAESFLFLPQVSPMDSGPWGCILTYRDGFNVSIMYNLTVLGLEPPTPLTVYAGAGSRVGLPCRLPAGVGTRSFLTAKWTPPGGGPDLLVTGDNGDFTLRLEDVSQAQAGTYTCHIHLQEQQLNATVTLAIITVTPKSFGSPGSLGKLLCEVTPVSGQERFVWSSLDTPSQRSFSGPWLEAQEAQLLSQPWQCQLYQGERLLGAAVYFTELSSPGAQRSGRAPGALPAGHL
Method: (§2) 96-well plates were coated with human LSECtin or Galectin-3 at 0.5 μg/ml overnight at 4° C., respectively. […] After blocking and washing, the mixture was transferred to the plates and incubated at room temperature for 1 h. The plates were then washed and subsequently incubated with the secondary antibody goat-anti Mouse IgG Fc-HRP for 1 h. After washing, TMB substrate was added and the color reaction was stopped by 2M HCl. The absorbance at 450 nm was read using a microplate reader.

[7] = molecular target: T4, mouse Fc (mFc)-tagged human LAG-3; experiment: FACS blocking: antibody pre-mixed with mFc-tagged human LAG-3, added to Raji cells; blocked ligand: human MHC-II on Raji cells; detection goat anti-mouse IgG Fc-PE
Method: (§3) The mixture was transferred into the 96-well plates seeded with Raji cells. Goat anti-mouse IgG Fc-PE antibody was used to detect the binding of LAG-3 protein to Raji cells. The mean fluorescence intensity (MFI) was evaluated by flow cytometry and analyzed by FlowJo.

[8] = molecular target: T4, mouse Fc (mFc)-tagged human LAG-3; experiment: ELISA blocking: antibody pre-mixed with mFc-tagged human LAG-3, added to plates coated with human Galectin-3 (blocked ligand); detection goat anti-mouse IgG Fc-HRP
Method: as §2

mFc-tagged mouse LAG-3 = molecular target: T5, mFc-tagged mouse LAG-3 (mouse, UniProt Q61790 24-442); experiment: FACS competition; blocks mFc-mouse LAG-3 binding to MHC-II on A20 cells
T5 construct: extracellular domain; also called mFc-tagged mouse protein
T5 sequence (looked up): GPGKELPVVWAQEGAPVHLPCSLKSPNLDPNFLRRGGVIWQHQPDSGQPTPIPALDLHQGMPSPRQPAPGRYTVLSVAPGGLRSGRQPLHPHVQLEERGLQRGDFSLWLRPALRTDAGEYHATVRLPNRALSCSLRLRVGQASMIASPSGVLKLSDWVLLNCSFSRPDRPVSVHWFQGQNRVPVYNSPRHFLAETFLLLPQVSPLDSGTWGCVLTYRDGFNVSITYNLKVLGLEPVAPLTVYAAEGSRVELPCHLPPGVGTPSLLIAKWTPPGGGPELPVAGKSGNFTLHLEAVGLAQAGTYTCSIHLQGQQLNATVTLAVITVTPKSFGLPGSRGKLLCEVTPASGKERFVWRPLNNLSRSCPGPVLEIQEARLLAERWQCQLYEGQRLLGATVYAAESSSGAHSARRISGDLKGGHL

[9] = molecular target: T3, cynomolgus LAG-3 on transfected cells; experiment: FACS on cynomolgus LAG-3 transfected cells
Method: as §1

[10] = molecular target: T4, mouse Fc (mFc)-tagged human LAG-3; experiment: FACS blocking: antibody pre-mixed with mFc-tagged human LAG-3; blocked ligand: cell surface human MHC-II (paragraph 254 says 'on A20 cells' for this figure); the column head on the sheet reads 'EC50 (nM)', the text calls the value IC50
Method: as §3

[11] = molecular target: T1, human LAG-3 on transfected cells; experiment: FACS on human LAG-3 transfected cells with serum-treated antibody, PE-labeled goat anti-human IgG
Method: On indicated time points (day 0, day 1, day 4, day 7 and day 14), an aliquot of serum treated sample were removed from the incubator and snap frozen in liquid N2, and then stored at −80° C. until ready for test. All the samples were quickly thawed prior to the stability test. […] MFI of the cells was measured by a flow cytometry and analyzed by FlowJo.

[12] = molecular target: T6, human LAG-3 protein (SPR analyte) (human, UniProt P18627 23-450); experiment: SPR Biacore 8K, Ab as ligand, LAG-3 as analyte
T6 construct: extracellular domain
T6 sequence (looked up): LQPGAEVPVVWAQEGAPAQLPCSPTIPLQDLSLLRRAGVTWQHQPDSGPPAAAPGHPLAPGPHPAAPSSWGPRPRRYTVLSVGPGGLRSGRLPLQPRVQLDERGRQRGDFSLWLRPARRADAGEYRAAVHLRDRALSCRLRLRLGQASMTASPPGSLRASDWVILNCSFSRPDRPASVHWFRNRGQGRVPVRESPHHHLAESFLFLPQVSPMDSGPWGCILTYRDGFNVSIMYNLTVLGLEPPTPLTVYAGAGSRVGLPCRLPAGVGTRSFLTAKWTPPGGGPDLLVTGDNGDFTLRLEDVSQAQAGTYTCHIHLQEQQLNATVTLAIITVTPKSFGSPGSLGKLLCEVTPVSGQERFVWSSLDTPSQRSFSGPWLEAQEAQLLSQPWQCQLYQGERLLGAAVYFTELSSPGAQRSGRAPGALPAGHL

[13] = molecular target: T7, mouse LAG-3 protein (SPR analyte) (mouse, UniProt Q61790 24-442); experiment: SPR Biacore 8K, Ab as ligand, LAG-3 as analyte
T7 construct: extracellular domain
T7 sequence (looked up): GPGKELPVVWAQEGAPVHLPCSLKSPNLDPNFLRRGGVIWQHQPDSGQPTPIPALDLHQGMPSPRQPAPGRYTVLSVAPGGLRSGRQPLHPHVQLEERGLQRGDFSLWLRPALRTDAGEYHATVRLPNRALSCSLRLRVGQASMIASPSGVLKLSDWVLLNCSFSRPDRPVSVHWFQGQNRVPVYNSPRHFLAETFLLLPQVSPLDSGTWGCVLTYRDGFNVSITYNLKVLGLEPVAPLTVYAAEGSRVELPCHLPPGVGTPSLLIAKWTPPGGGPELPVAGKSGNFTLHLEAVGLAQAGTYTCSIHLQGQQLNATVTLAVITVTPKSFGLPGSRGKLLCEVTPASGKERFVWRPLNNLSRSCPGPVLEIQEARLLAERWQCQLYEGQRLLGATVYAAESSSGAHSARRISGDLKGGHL

[14] = molecular target: T1, human LAG-3 on transfected cells; experiment: FACS affinity on transfected cells; remark: listed apart in the source
[15] = molecular target: T3, cynomolgus LAG-3 on transfected cells; experiment: FACS affinity on transfected cells; remark: listed apart in the source
[16] = molecular target: T1, human LAG-3 on transfected cells; experiment: FACS, serial dilutions on human LAG-3 transfected cells, PE-labeled secondary antibody
[17] = molecular target: T6, human LAG-3 protein (SPR analyte); experiment: SPR Biacore 8K, Ab captured on anti-human Fc, LAG-3 as analyte
[18] = molecular target: T7, mouse LAG-3 protein (SPR analyte); experiment: as above
human CD4 = human CD4 (human, UniProt P01730 26-390, limits assumed); experiment: ELISA, plates coated with human CD4, goat anti-human IgG Fc-HRP
Method: Cross-reactivity to human CD4 was measured by ELISA. Plates were coated with human CD4 at 1 μg/ml overnight at 4° C. After blocking and washing, 1 μg/ml of LAG-3 antibodies were added to the plates and incubated at room temperature for 1 h. The plates were then washed and subsequently incubated with goat-anti human IgG Fc-HRP for 45 min. After washing, TMB substrate was added and the color reaction was stopped by 2M HCl. The absorbance at 450 nm was read using a microplate reader.

[19] = molecular target: T4, mouse Fc (mFc)-tagged human LAG-3; experiment: ELISA blocking: antibody pre-mixed with mFc-tagged human LAG-3, added to plates coated with human Galectin-3 (blocked ligand); detection goat anti-mouse IgG Fc-HRP; remark: listed apart in the source
Method: as §2

[20] = molecular target: T4, mouse Fc (mFc)-tagged human LAG-3; experiment: ELISA blocking: antibody pre-mixed with mFc-tagged human LAG-3, added to plates coated with human LSECtin (blocked ligand); detection goat anti-mouse IgG Fc-HRP; remark: listed apart in the source
Method: as §2

B1: W3396-R2-1 (Fc fusion)
VHH: QVQLVESGGGVVQPGGSLRLSCAASGLTLSQYTMGWFRQAPGKERELVAAIHWTSSVTDYADSVYGRFTISRDDSKNTGYLQMNSLRAEDTAVYYCAATWYYTHRGSFDYWGQGTLVTVSS
[1]
  Bmax: 250 pM
  Kd: 810 pM
[2]
  Bmax: 57 pM
  Kd: 57 pM
[3]
  Bmax: 280 pM
  Kd: 3300 pM
[4]
  EC50: 100 pM
[5]
  EC50: 2340 pM
[6]
  IC50: 1810 pM
[7]
  IC50: 840 pM
[8]
  IC50: 926 pM
mFc-tagged mouse LAG-3
  IC50: 2900 pM
[9]
  EC50: 2340 pM
[10]
  IC50: 1780 pM
[11]
  EC50 (read off the curve): ~100 pM
[12]
  Kd: 183 pM
  koff: 2.73e-05 s⁻¹
  kon: 149000 M⁻¹ s⁻¹
[13]
  Kd: 2.27 pM
  koff: 2.31e-06 s⁻¹
  kon: 1.02e+06 M⁻¹ s⁻¹
[14]
  Bmax: 54 pM
  Kd: 460 pM
[15]
  Bmax: 380 pM
  Kd: 6300 pM
[16]
  EC50: 364 pM
[17]
  Kd: 162 pM
  koff: 2.7e-05 s⁻¹
  kon: 166000 M⁻¹ s⁻¹
[18]
  Kd: < 1.22 pM
  koff: < 1e-06 s⁻¹
  kon: 819000 M⁻¹ s⁻¹
Human CD4
  binding result: no binding (tested: 66.7 nM)
[19]
  IC50: 1860 pM
[20]
  IC50: 642 pM
